Results as given in the supplement of paper PMC10126150.
± gives the standard deviation of the averaged measurements.

System: ATP
Experiment: switch fluorescence ratio, 500 uM ATP over buffer (Cy3 cluster intensity, sum of 5 cycles each) (fold (ratio)); higher = stronger signal-on switching upon ATP binding; sequences stand for … in TCGTCGGCAGCGTCAGATGTGTATAAGAGACAGTTTTTTTTTTTTTTTTTTTTTTTTT…TC
Conditions: aptamer strand: ATP DNA aptamer (quencher-CACCTGGGGGAGTATTGCGGAGGAAGG + anchor), 100 nM annealed; ATP concentration: 500 uM
Method in brief: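 Clusters carrying Cy3-labelled switching strands on a modified Illumina MiSeq flow-cell were annealed to 100 nM quencher-labelled ATP aptamer and imaged in selection buffer. They were imaged again after 15 min with 500 uM ATP at 22 °C, over five buffer/ATP cycles with NaOH stripping and re-annealing in between. For each cluster, the fluorescence ratio is the summed Cy3 intensity of the target cycles divided by that of the buffer cycles, averaged per switch-domain sequence. Clusters outside 100-1000 RFU were left out.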
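Note: ATP exposure 15 min at 22 °C before imaging.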

In the case of GAGGACTTAG, the switch fluorescence ratio is reported as 0.989 ± 0.022.

In the case of GAGGAGAAGA, the switch fluorescence ratio is reported as 1.02 ± 0.027.

With GAGGAGAATT the switch fluorescence ratio was 0.983 ± 0.018.

GAGGAGACGT was tested, and the switch fluorescence ratio was 1.03 ± 0.019.

GAGGAGCGGT gave a switch fluorescence ratio of 1 ± 0.017.

In the case of GAGGAGGCCA, the switch fluorescence ratio is reported as 0.9828 ± 0.0053.

GAGGAGGGGA was tested, and the switch fluorescence ratio was 1.01 ± 0.018.

For GAGGATGGGT, the switch fluorescence ratio was 0.933 ± 0.024.

GAGGATTATT gave a switch fluorescence ratio of 0.9694 ± 0.0059.

GAGGATTGAC gave a switch fluorescence ratio of 1 ± 0.038.

For GAGGCAAAG, the switch fluorescence ratio was 2.87 ± 2.4.

In the case of GAGGCAAAGT, the switch fluorescence ratio is reported as 1.094 ± 0.0059.

GAGGCAAGGT gave a switch fluorescence ratio of 1.65 ± 0.092.

GAGGCACGG gave a switch fluorescence ratio of 1.0469 ± 0.00025.

Work on GAGGCAGAGT yielded a switch fluorescence ratio of 1.04 ± 0.023.

GAGGCATATA showed a switch fluorescence ratio of 1.9 ± 0.29.

Work on GAGGCCGCTA yielded a switch fluorescence ratio of 1.84 ± 0.043.

Sequence GAGGCGCATC has a switch fluorescence ratio of 1 ± 0.026.

Sequence GAGGCGCTTA has a switch fluorescence ratio of 0.961 ± 0.011.

Work on GAGGCGGCTG yielded a switch fluorescence ratio of 0.994 ± 0.038.

Work on GAGGCGGGTG yielded a switch fluorescence ratio of 1.01 ± 0.013.

With GAGGCTGGTA the switch fluorescence ratio was 0.98 ± 0.028.

GAGGCTGTTT showed a switch fluorescence ratio of 1.01 ± 0.035.

GAGGGAATGG gave a switch fluorescence ratio of 1.07 ± 0.061.

GAGGGAATTA showed a switch fluorescence ratio of 1.06 ± 0.11.

For GAGGGACTGG, the switch fluorescence ratio was 0.988 ± 0.084.

GAGGGACTTG showed a switch fluorescence ratio of 0.98 ± 0.012.

Work on GAGGGCACGC yielded a switch fluorescence ratio of 0.968 ± 0.06.

GAGGGCCGCG showed a switch fluorescence ratio of 0.997 ± 0.051.

In the case of GAGGGCCGGG, the switch fluorescence ratio is reported as 0.995 ± 0.068.

With GAGGGCGGCA the switch fluorescence ratio was 1.02 ± 0.036.

For GAGGGCGTAA, the switch fluorescence ratio was 1.06 ± 0.035.

Sequence GAGGGCTGAG has a switch fluorescence ratio of 0.985 ± 0.02.

With GAGGGGAAGT the switch fluorescence ratio was 0.9982 ± 0.004.

GAGGGGAGGT gave a switch fluorescence ratio of 0.974 ± 0.025.

GAGGGGATTG was tested, and the switch fluorescence ratio was 0.986 ± 0.047.

GAGGGGCCTA gave a switch fluorescence ratio of 0.968 ± 0.021.

With GAGGGGCGAT the switch fluorescence ratio was 0.998 ± 0.013.

With GAGGGGGGAG the switch fluorescence ratio was 0.986 ± 0.027.

GAGGGGGTAG showed a switch fluorescence ratio of 0.997 ± 0.033.

Work on GAGGGGGTCA yielded a switch fluorescence ratio of 1.02 ± 0.029.

With GAGGGGGTTT the switch fluorescence ratio was 0.99 ± 0.018.

Work on GAGGGGTAAG yielded a switch fluorescence ratio of 1 ± 0.015.

GAGGGGTACT gave a switch fluorescence ratio of 1.025 ± 0.0042.

Sequence GAGGGGTGTG has a switch fluorescence ratio of 0.993 ± 0.029.

With GAGGGGTTAG the switch fluorescence ratio was 0.978 ± 0.014.

For GAGGGTAATC, the switch fluorescence ratio was 1.004 ± 0.01.

For GAGGGTAGAG, the switch fluorescence ratio was 1.01 ± 0.042.

Work on GAGGGTCCTA yielded a switch fluorescence ratio of 0.9994 ± 0.0054.

For GAGGGTGCAG, the switch fluorescence ratio was 1.004 ± 0.0043.

GAGGGTGTAA gave a switch fluorescence ratio of 1.001 ± 0.01.

For GAGGGTTTTG, the switch fluorescence ratio was 0.9768 ± 0.0092.

GAGGTAAGGT gave a switch fluorescence ratio of 1 ± 0.015.

With GAGGTAGGCC the switch fluorescence ratio was 1.048 ± 0.0066.

In the case of GAGGTAGTCA, the switch fluorescence ratio is reported as 1.0112 ± 0.00047.

For GAGGTATGTG, the switch fluorescence ratio was 0.997 ± 0.023.

Work on GAGGTATTTG yielded a switch fluorescence ratio of 1.02 ± 0.037.

GAGGTCCAGC showed a switch fluorescence ratio of 1.14 ± 0.074.

In the case of GAGGTGAGAC, the switch fluorescence ratio is reported as 1.06 ± 0.13.

GAGGTGGGGC showed a switch fluorescence ratio of 1.05 ± 0.028.

Sequence GAGGTGTGAG has a switch fluorescence ratio of 1.03 ± 0.018.

Work on GAGGTGTGTT yielded a switch fluorescence ratio of 0.996 ± 0.02.

For GAGGTTGATG, the switch fluorescence ratio was 1.01 ± 0.02.

In the case of GAGGTTGCCG, the switch fluorescence ratio is reported as 0.951 ± 0.018.

GAGGTTGTTA gave a switch fluorescence ratio of 0.993 ± 0.032.

With GAGGTTTAAG the switch fluorescence ratio was 0.957 ± 0.052.

GAGGTTTAAT showed a switch fluorescence ratio of 0.981 ± 0.039.

In the case of GAGGTTTTAT, the switch fluorescence ratio is reported as 0.987 ± 0.054.

Sequence GAGGTTTTGG has a switch fluorescence ratio of 1.03 ± 0.057.

GAGTAAGAGG was tested, and the switch fluorescence ratio was 0.989 ± 0.059.

GAGTAAGGGT gave a switch fluorescence ratio of 0.99 ± 0.024.

GAGTAAGTTT showed a switch fluorescence ratio of 1.012 ± 0.0081.

With GAGTACACGT the switch fluorescence ratio was 0.9813 ± 0.0061.

With GAGTACGGGA the switch fluorescence ratio was 1.09 ± 0.059.

GAGTAGGAAG gave a switch fluorescence ratio of 0.961 ± 0.05.

For GAGTAGGCGC, the switch fluorescence ratio was 0.955 ± 0.032.

GAGTAGTATT showed a switch fluorescence ratio of 1 ± 0.02.

In the case of GAGTATTTAG, the switch fluorescence ratio is reported as 0.9801 ± 0.0093.

GAGTATTTTG was tested, and the switch fluorescence ratio was 0.953 ± 0.026.

GAGTCAACGG gave a switch fluorescence ratio of 1.027 ± 0.0071.

Sequence GAGTCACGGA has a switch fluorescence ratio of 1.01 ± 0.046.

GAGTCGGGTA was tested, and the switch fluorescence ratio was 1.028 ± 0.0097.

GAGTCTAAGT showed a switch fluorescence ratio of 0.996 ± 0.026.

GAGTCTGGGA gave a switch fluorescence ratio of 1.032 ± 0.0051.

Sequence GAGTCTGTGC has a switch fluorescence ratio of 1.02 ± 0.043.

In the case of GAGTCTTATA, the switch fluorescence ratio is reported as 1.01 ± 0.031.

GAGTCTTTTA was tested, and the switch fluorescence ratio was 0.959 ± 0.013.

Sequence GAGTGAAGGA has a switch fluorescence ratio of 1.03 ± 0.065.

With GAGTGACCGA the switch fluorescence ratio was 1.01 ± 0.02.

Sequence GAGTGACTTG has a switch fluorescence ratio of 1.017 ± 0.0089.

GAGTGAGTCG showed a switch fluorescence ratio of 0.981 ± 0.022.

GAGTGCTGGG gave a switch fluorescence ratio of 1.01 ± 0.011.

In the case of GAGTGCTGTT, the switch fluorescence ratio is reported as 1.024 ± 0.01.

GAGTGGAAGC gave a switch fluorescence ratio of 0.964 ± 0.051.

GAGTGGAATA was tested, and the switch fluorescence ratio was 1.002 ± 0.0083.

With GAGTGGGATG the switch fluorescence ratio was 0.9633 ± 0.0035.

GAGTGGGGGG gave a switch fluorescence ratio of 0.976 ± 0.043.

With GAGTGGGTTA the switch fluorescence ratio was 1.03 ± 0.012.

In the case of GAGTGGGTTT, the switch fluorescence ratio is reported as 0.999 ± 0.03.

GAGTGTACGT gave a switch fluorescence ratio of 1.01 ± 0.052.

Sequence GAGTTAAGGG has a switch fluorescence ratio of 1.007 ± 0.0018.

In the case of GAGTTAATGT, the switch fluorescence ratio is reported as 1.01 ± 0.043.

GAGTTAATTG showed a switch fluorescence ratio of 1.01 ± 0.043.

For GAGTTATATT, the switch fluorescence ratio was 0.985 ± 0.025.

Work on GAGTTATGGT yielded a switch fluorescence ratio of 1.02 ± 0.044.

GAGTTATTTA showed a switch fluorescence ratio of 0.982 ± 0.027.

Work on GAGTTCAGGA yielded a switch fluorescence ratio of 1 ± 0.021.

With GAGTTCCCGA the switch fluorescence ratio was 0.977 ± 0.048.

GAGTTCCGGG showed a switch fluorescence ratio of 1.01 ± 0.024.

With GAGTTCGCGG the switch fluorescence ratio was 1.034 ± 0.01.

In the case of GAGTTCGGGG, the switch fluorescence ratio is reported as 0.987 ± 0.014.

Work on GAGTTGAGAT yielded a switch fluorescence ratio of 0.9871 ± 0.007.

Sequence GAGTTGCAGG has a switch fluorescence ratio of 1.01 ± 0.032.

Work on GAGTTGGGAA yielded a switch fluorescence ratio of 1.04 ± 0.077.

GAGTTGGGGT was tested, and the switch fluorescence ratio was 0.986 ± 0.018.

GAGTTGTCTT showed a switch fluorescence ratio of 0.9538 ± 0.0062.

GAGTTTATAT gave a switch fluorescence ratio of 1.01 ± 0.017.

Sequence GAGTTTTGAA has a switch fluorescence ratio of 0.997 ± 0.018.

In the case of GATAAACAAT, the switch fluorescence ratio is reported as 1.19 ± 0.28.

With GATAAATCGG the switch fluorescence ratio was 0.981 ± 0.024.

Work on GATAACCTTT yielded a switch fluorescence ratio of 1.073 ± 0.0078.

In the case of GATAAGAGTG, the switch fluorescence ratio is reported as 1.02 ± 0.052.

Sequence GATAAGGGTG has a switch fluorescence ratio of 1.07 ± 0.0053.

Work on GATAAGTCGT yielded a switch fluorescence ratio of 0.991 ± 0.032.

GATAATAGGG showed a switch fluorescence ratio of 0.99 ± 0.045.

GATACAGTGC gave a switch fluorescence ratio of 1.059 ± 0.002.

With GATACGTGTT the switch fluorescence ratio was 0.998 ± 0.053.

With GATACTCGTG the switch fluorescence ratio was 0.97 ± 0.032.

In the case of GATACTGCGC, the switch fluorescence ratio is reported as 1.16 ± 0.087.

Work on GATACTGGGG yielded a switch fluorescence ratio of 1.01 ± 0.028.

Sequence GATAGAAATT has a switch fluorescence ratio of 1.01 ± 0.031.

Work on GATAGAATGA yielded a switch fluorescence ratio of 1.014 ± 0.0096.

GATAGAGAGG was tested, and the switch fluorescence ratio was 1 ± 0.044.

For GATAGCCGAT, the switch fluorescence ratio was 1.031 ± 0.0015.

For GATAGGAAGG, the switch fluorescence ratio was 0.964 ± 0.052.

GATAGGCAGG gave a switch fluorescence ratio of 0.998 ± 0.019.

GATAGGCGGG showed a switch fluorescence ratio of 0.9795 ± 0.0094.

GATAGGGGAT was tested, and the switch fluorescence ratio was 0.986 ± 0.031.

GATAGTAAGG gave a switch fluorescence ratio of 0.9795 ± 0.0075.

GATAGTATGC gave a switch fluorescence ratio of 0.961 ± 0.059.

Work on GATAGTATGT yielded a switch fluorescence ratio of 0.981 ± 0.023.

GATAGTGAAA showed a switch fluorescence ratio of 1.02 ± 0.035.

GATATACAGC was tested, and the switch fluorescence ratio was 1.02 ± 0.017.

For GATATAGGGG, the switch fluorescence ratio was 1 ± 0.034.

Sequence GATATCAGGA has a switch fluorescence ratio of 0.989 ± 0.027.

GATATCATCT was tested, and the switch fluorescence ratio was 0.99 ± 0.042.

GATATCCGAG gave a switch fluorescence ratio of 1.05 ± 0.011.

In the case of GATATGCGTT, the switch fluorescence ratio is reported as 0.985 ± 0.031.

Sequence GATATGGGCA has a switch fluorescence ratio of 1.04 ± 0.037.

GATATGTGGG showed a switch fluorescence ratio of 0.986 ± 0.031.

GATATTGAAG gave a switch fluorescence ratio of 0.974 ± 0.031.

Sequence GATATTGGGG has a switch fluorescence ratio of 0.981 ± 0.033.

GATATTGTCA showed a switch fluorescence ratio of 1.04 ± 0.069.

Sequence GATATTGTTT has a switch fluorescence ratio of 0.988 ± 0.019.

Sequence GATATTTGA has a switch fluorescence ratio of 0.99448 ± 0.00073.

GATATTTTCG showed a switch fluorescence ratio of 1.01 ± 0.035.

Work on GATATTTTGG yielded a switch fluorescence ratio of 0.982 ± 0.025.
